{"source": "the nanobody polyreactivity screen of Harvey et al. (2022)", "data": [{"assay": "yeast display, Sf9 membrane polyspecificity reagent, FACS + sequencing; frameworks hold sequencing errors", "procedure,_shortened": "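Galactose-induced (36–48 hours) yeast carrying a synthetic nanobody display library were exposed to 10% biotinylated, detergent-solubilized Sf9 membrane reagent at 4 °C for 1 hour. FACS followed streptavidin microbead enrichment, using low and high (top ~1%) gates for expression (anti-HA) and reagent binding (streptavidin). Colony PCR, MiSeq 2 × 250 sequencing and CDR-length filtering followed. Labels for polyreactivity reflect the gate of origin.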", "values": [{"sequence": "QVQLVESGGGLVQAGGSLRLSCAASGRIFVSYAMGWYRQAPGKERELVAAISNSGSRTYYADSVKGRFTISRDNAKNTVYLQMNSLKPEDTAVYYCAAGQGAGVDYWGQGTQVTVSS", "polyreactivity (PSR sort gate)": "high polyreactivity"}, {"sequence": "HVQLVESGGGLVQAGGSLRLSCAASGIIFGAYALGWYRQAPGKERELVAAITYSSGSTYYADSVKGRFTISRDNAKNTVYLQMNSLKPEDTAVYYCAKTNFSQSSRYNYDYWGQGTQVTVSS", "polyreactivity (PSR sort gate)": "low polyreactivity"}, {"sequence": "QVQLVESGGGLVQAGGSLRLSCAASGFIFSHNAMGWYRQAPGKERELVAAIDYIDGSTYYADSVKGRFTISRDNAKNTVYLQMNSLKPEDTAVYYCAADGLFYWWHYGYWGQGTQVTVSS", "polyreactivity (PSR sort gate)": "low polyreactivity"}, {"sequence": "QVQLVESGGGLVQAGGSLRLSCAASGIIFSYNAMGWYRQAPGKERELVAAITSGGITNYADSVKGRFTISRDNAKNTVYLQMNSLKPEDTAVYYCAAEVWRYYRRDYWGQGTQVTVSS", "polyreactivity (PSR sort gate)": "low polyreactivity"}, {"sequence": "QVQLVESGGCLVQAGGSLRLSCAASGSTFRWNSIGSYRQAPVKEREFVASITSGGSTNYADSVKGRYTISRDIAKNTVYLQMNSLKPYDTAVYYCNADVRRSSYYVWLYDYWGQGTQVTVSS", "polyreactivity (PSR sort gate)": "low polyreactivity"}, {"sequence": "QVHLVESGGGLVQAGGSLRLSCAASGRTFVQYAMGWSRQAPGTERELVAVISNGGTTYYADSVKGRFTISRDNAKNTVYLQMNSLKPEDTAVYYCAAKIITRRGGRYDYWGQGTQVTVSS", "polyreactivity (PSR sort gate)": "high polyreactivity"}, {"sequence": "QVQLVESGGGLVQAGGSLRLSCAASGSTSARYAMGWYRQAPGKERELVATITRSGTTKYADSVKGRFTISRDNAKNTVYLQMNSLKPEDTAVYYCNTDTYFPLYDYWGQGTQVTVSS", "polyreactivity (PSR sort gate)": "low polyreactivity"}, {"sequence": "QVQLVESAGGVVQAGGSLRLSSAASGSIFDGNAMGWYRPAPGKERQLVAAISGGGRTYYADSVKGRFTISRDNAKNTVYLQMNSLKPEDTAVYYCAAAYTFYVYGSYKVTFDYWGQGTQVTVSS", "polyreactivity (PSR sort gate)": "low polyreactivity"}, {"sequence": "QVQLVESGGGLVQAGGRLRLSCAASGSTFRSNVMGRYRQATGKERELVAAITSGSITNYADSVKGRFTISRDNAKNTVYLQMNSLKPEDTAVYYCAVETYVYGRMGYLGQGTQVTVSS", "polyreactivity (PSR sort gate)": "high polyreactivity"}, {"sequence": "QVQLVESGGGLVQAGGSLRLSCAASGRTFGPYTMGGYIQAPGKEREFVAAIRSRGDTTYYADSVKGRFTISRDNAKNTVYLQMNSLKPEDTAVYYCAARSYFLVAGSRYDYWGQGTQVTVSS", "polyreactivity (PSR sort gate)": "high polyreactivity"}, {"sequence": "QDQLVESGGGLVQAGGSLRLSCAASGSILAYNAMGWYRQAPGKERQLVAAIRLSGGSTYYADSVKGRFTISRDNAKNTVYLQMNSLKPEDTAVYYCARRYYRYDTRKYNYWGQGTQVSVSS", "polyreactivity (PSR sort gate)": "high polyreactivity"}, {"sequence": "HVQLQESGGGLVQAGGSLRLSCAASGSIFQATYMGWYRPAPGKEREFVASITYGSITNYADSVKGRFTIGRDNAKDTLYLQMNSLKPEDTAVYYCAAVGRRRTTVGRYVRMDYWGQGTQVTVSS", "polyreactivity (PSR sort gate)": "low polyreactivity"}, {"sequence": "QVQLVESGGGLVQAGGSLRLSCAASGLTFPRYAMGWYRQAPGIERELVAAISYRGSRTYYADSVKGRFTISRDNAKNTVYLQMNSLKPEDSAVYYCNKVRPGYGVTYLVGYWGQGTQVTVSS", "polyreactivity (PSR sort gate)": "high polyreactivity"}, {"sequence": "QVQLVESGGGLVQAGGSLRLSCAASGRIFYPYSMGWYRQAPGKERELVASINYRGGSTYYADSVNGRFTISRDNAKNTVYLQMNSLKPEDTAVYYCNAVRGFYRYSSSMGYWGQGTQVTVSS", "polyreactivity (PSR sort gate)": "high polyreactivity"}, {"sequence": "QVQLVESGGGLVQAGGSLRLSCAASGRTFYTVYAMGWYRQAPGKERELVAAITKDGTTTYYADSVKGRFTISRDNAKNTVYLQMNSLKPEDTAVYYCNADVCQPWGGGEYNYWGQGTQVTVSS", "polyreactivity (PSR sort gate)": "high polyreactivity"}, {"sequence": "QVQLVESGGGLVPAGGSLRLSCAASGFIFSRYDMGCYRQAPGKERELVAAIDWSGDSTYYADSVKGRFTISRDNAKNTVYFQMNSLKPEDTAVYYCAAGQDGDSDWGQGTQVTVSS", "polyreactivity (PSR sort gate)": "low polyreactivity"}]}]}
